Laboratory results from the supplement of paper PMC12042874.
± gives the uncertainty stated by the source.

assay: amyloid nucleation score (Sup35N fusion, yeast selection) (log enrichment); library NNK3; higher = more nucleation; inactive = no reads after selection
In short: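 Three technical output replicates were used for random libraries. Psi-negative yeast expressing peptides of 20 random codons fused to Sup35N were induced with 100 μM copper sulfate for 24 hours and grown 7 days at 30°C on medium lacking adenine and uracil, and input and output plasmid inserts were Illumina-sequenced, excluding sequences with under 100 input reads. The nucleation score is the DiMSum log enrichment of output over input reads, centred on the mode score of non-aggregating sequences.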

Substance | amyloid nucleation score
SDKRQLRDR | inactive
IEVLKNLRMVTGLVTL | inactive
PRWETSYLIL | inactive
LCMQFNLVWRYDRRETINSE | 1.16 ± 0.11
ASSSNGIVTFNNPR | inactive
VSFHRRKLNHCNCRML | inactive
NKVFMEDQGLKVHWV | inactive
LSWIASSGKGWSTTMCISTM | inactive
SVQFFPDCCQGELTTNTVRS | inactive
DTPMESGTGATHLVRIVHSA | inactive
RVSFTSITWVSSLM | 0.003 ± 0.98
ANAVLKIFTSVMGSVNS | inactive
FVTAAN | inactive
YIGFGGDCSVSAFVTCQLGF | inactive
NLYLSDNVCRVMKASVWVHA | inactive
KIWFCNWFANNYFMIANSST | 0.627 ± 0.11
DQRLFFGHGGFDAVSW | inactive
IEAVCNSWRIYGM | inactive
SYGALLNGYGGKSSAPIRWS | inactive
DADTW | inactive
SGCRLLVVECPASCCWDITT | inactive
KCAALLDPDSASGGRCEWNC | 1.08 ± 0.17
LSHYVMVTYRAKGRMAGRIW | inactive
VSNDLWATVYHWGL | inactive
CSLIQSVRSTA | inactive
WIGMYSGETAFLSLPVTQQI | inactive
VVLNWNTNGY | 0.669 ± 0.15

Substance | amyloid nucleation score
VFSIND | inactive
TMYSLD | inactive
HTDWICYRRWYCIASRAMYQ | inactive
IERLDNSIVNVMWILSGCKA | inactive
RAGTKLPLYL | inactive
KYDVGVYLYLLLPTNCRQQW | 1.46 ± 0.12
YFYSHRYI | inactive
LCCSCWLLIDCQWKDGYLEG | 1.91 ± 0.079
HFCSGSINMMNFLSKDYKMQ | 2.39 ± 0.063
SDYENTRTNDNDHICVLSVG | inactive
TVFSCYSWELEMMLWDGSYM | inactive
TIFKRSPACYYNGIHLWVTF | inactive
CSVGS | inactive
VNWIVLSYHYNRYDVGNMAS | 2.87 ± 0.074
LWVCNRGGTPTSVSSESRRE | -0.187 ± 1
HWCTSKFIKPNGYPREERRV | inactive
LQTFDYQRVWNKCLSEFSLE | inactive
AIFTFVPLSPTRTHGWDHCR | inactive
FIYSHTVWFRNYLHMYPILF | inactive
SFISVCNAVLHIR | inactive
SCGSDKSLFDDCIKPRSRHC | inactive
YPWGEGNGYTCGV | inactive
INIWSMYYMILLLFFIIYRL | 0.55 ± 0.24
DISPYFLYE | inactive
SVSHAE | inactive
TDRLGCSFELCAPTCKCAGV | inactive
HFMLNIWKVDNNMLWVLICP | inactive

Substance | amyloid nucleation score
MRWMGDGMRSTNSSVNSHGL | inactive
AVIWGEAPRIFLTCGALRRE | inactive
FMPTVQVRLQC | inactive
GMRFRLMEKFHRLFYYSNMT | inactive
WAFSVKKWRTVLRKCILQWG | inactive
LLAWRHEMLMFVPDNLSYGG | inactive
NFKNMEWFLST | inactive
KPCSRVSWNVVQVV | inactive
TVYEA | inactive
WHSKWVWNHNWLGSINCRYE | inactive
MCSETWIYALSICDNLCRD | 1.29 ± 0.16
CNVRSFRFRCSGSPHSARSS | inactive
SVYGIYGSNYMNTFVVVLVG | inactive
EAKLVGGFTDFRELITNCLV | 1.01 ± 0.17
SKGGADNNWLVIDCPLNRRM | inactive
HWILSTPCLNVV | inactive
KGSDFSEFVAWRLLTAYRVP | inactive
IRALRKRDEDGSLLTGTLFC | -0.385 ± 1.1
SLSATCLCTVMSTNFIFYVF | 0.509 ± 0.41
YKSSNRSFFGIMANQPRLGC | inactive
DSHGYIYLCVWVRTQNPWSV | inactive
LCTLMCTQFNYFVSETWLVP | 2.25 ± 0.093
FYYYLCYDIVAISVLMNLPY | inactive
DVSWRTPYTIKNYGSFFLIK | inactive
ARMVVVLKRFCGVCMMSLFL | inactive
